Legend:
Mouse IR = molecular target: T1, Mouse IR (mouse, UniProt P15208 28-946, limits assumed); assay: SPR, IR immobilised on CM5 chip, IR739 flowed, pH 7.0
T1 construct: also called mouse insulin receptor
Procedure: (§1) Human IR or mouse IR at 1 μg/ml was immobilized with acetate (pH 4.0) on a CM5 sensor chip. […] For measurement conditions, a flow rate was set as 30 μl/min, and an association time and a dissociation time were set as 120 seconds and 600 seconds, respectively. For regeneration, 10 mM glycine-HCl (pH 1.5) was flowed for 30 seconds.

Human IR = molecular target: T2, Human IR (human, UniProt P06213 28-956, limits assumed); assay: as above
T2 construct: the natural receptor is processed into alpha and beta chains; also called human insulin receptor
Procedure: as §1

Kd (Mouse IR): 6.4 nM
koff (Mouse IR): 0.00061 s⁻¹
kon (Mouse IR): 95300 M⁻¹ s⁻¹
Kd (Human IR): 15 nM
koff (Human IR): 0.00144 s⁻¹
kon (Human IR): 96000 M⁻¹ s⁻¹
B1: IR739 (antibody, human IgG1, kappa, V domains shown)
VH: EVQLVESGGGLVQPGGSLRLSCAASGFTFSSYYMSWVRQAPGKGLEWVSAISYGGSSTYYADSVKGRFTISRDNSKNTLYLQMNSLRAEDTAVYYCARHPSYGTVNHAYFDVWGQGTLVTVSS
VL: DIQMTQSPSSLSASVGDRVTITCGASRDVSSYLAWYQQKPGKAPKLLIYDANILQSGVPSRFSGSGSGTDFTLTISSLQPEDFATYYCLEYNNLPLTFGQGTKVEIKR
notes: Conventional IgG from a human synthetic scFv library; also called IR739 antibody; anti-IR antibody

Source: patent US20210324094A1 (MOGAM INSTITUTE FOR BIOMEDICAL RESEARCH, published 2021)
